Assay results from paper PMC9865026 (Pathogens, 2022).

Assays:
Assay in all cases: ELISA
Details in all cases: both partners purified
[1] = molecular target: A/New Caledonia/20/1999 (NC H1N1) recombinant hemagglutinin (HA) (Influenza A virus A/New …, UniProt Q6WG00, strain)
[2] = molecular target: A/California/07/2009 (pH1N1) recombinant hemagglutinin (HA) (Influenza A virus A/California/07/2009 …, UniProt C3W5X2, strain)
[3] = molecular target: A/Aichi/2/68 (H3N2A) recombinant hemagglutinin (HA) (Influenza A virus A/Aichi/2/1968 …, UniProt T2HNI1)
[4] = molecular target: A/Perth/16/2009 (H3N2P) recombinant hemagglutinin (HA) (Influenza A virus A/Perth/16/2009 (H3N2), UniProt C6KNH7, strain)

Measured: binding result

B1: CR6261 human IgG1 possessing a mouse IgG1 hinge (antibody, V domains shown)
VH: EVQLVESGAEVKKPGSSVKVSCKASGGPFRSYAISWVRQAPGQGPEWMGGIIPIFGTTKYAPKFQGRVTITADDFAGTVYMELSSLRSEDTAMYYCAKHMGYQVRETMDVWGKGTTVTVSS
VL: QSVLTQPPSVSAAPGQKVTISCSGSSSNIGNDYVSWYQQLPGTAPKLLIYDNNKRPSGIPDRFSGSKSGTSATLGITGLQTGDEANYYCATWDRRPTAYVVFGGGTKLTVL
notes: also called human IgG1 with a mouse IgG1 hinge; copies: 2 + 2
binds: [1] | [2]

B2: CR6261 human IgG4 (antibody, V domains shown)
VH: EVQLVESGAEVKKPGSSVKVSCKASGGPFRSYAISWVRQAPGQGPEWMGGIIPIFGTTKYAPKFQGRVTITADDFAGTVYMELSSLRSEDTAMYYCAKHMGYQVRETMDVWGKGTTVTVSS
VL: QSVLTQPPSVSAAPGQKVTISCSGSSSNIGNDYVSWYQQLPGTAPKLLIYDNNKRPSGIPDRFSGSKSGTSATLGITGLQTGDEANYYCATWDRRPTAYVVFGGGTKLTVL
notes: also called CR6261 IgG4; source: HEK-293, transfected (pTT5), purified from cell culture supernatant (MabSelect); copies: 2 + 2
binds: [1] | [2]

B3: FI6 human IgG1 with a mouse IgG1 hinge (antibody, V domains shown)
VH: QVQLVESGGGVVQPGRSLRLSCAASGFTFSTYAMHWVRQAPGKGLEWVAVISYDANYKYYADSVKGRFTISRDNSKNTLYLQMNSLRAEDTAVYYCAKDSQLRSLLYFEWLSQGYFDYWGQGTLVTVSS
VL: not shown
notes: also called VR-analogous human IgG1 with a mouse IgG1 hinge (FI6); copies: 2 + 2
binds: [1] | [2] | [3] | [4]

B4: F045-092 human IgG4 (antibody, V domains shown)
VH: EVQLVESGAEVKKPGSSVKVSCRASGTFYKYAINWVRQAPGQGLEWMGGIIPFFGTTNYAQKFQGRLTITADGSTNTAYMQLDSLRSEDTAVYYCAGPSITESHYCLDCAAKDYYYGLDVWGQGTTVTVSS
VL: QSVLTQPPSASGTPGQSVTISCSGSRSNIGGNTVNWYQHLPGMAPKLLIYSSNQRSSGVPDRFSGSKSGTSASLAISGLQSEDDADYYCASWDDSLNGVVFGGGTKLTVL
notes: also called F045-092 IgG4; source: HEK-293, transfected (pTT5), purified from cell culture supernatant (MabSelect); copies: 2 + 2
binds: [3] | [4]

B5: FI6 human IgG4 (antibody, V domains shown)
VH: QVQLVESGGGVVQPGRSLRLSCAASGFTFSTYAMHWVRQAPGKGLEWVAVISYDANYKYYADSVKGRFTISRDNSKNTLYLQMNSLRAEDTAVYYCAKDSQLRSLLYFEWLSQGYFDYWGQGTLVTVSS
VL: not shown
notes: also called VR-analogous human IgG4 (FI6); source: HEK-293, transfected (pTT5), purified from cell culture supernatant (MabSelect); copies: 2 + 2
binds: [1] | [2] | [3] | [4]

B6: FI6 mouse IgG1 (antibody, V domains shown)
VH: QVQLVESGGGVVQPGRSLRLSCAASGFTFSTYAMHWVRQAPGKGLEWVAVISYDANYKYYADSVKGRFTISRDNSKNTLYLQMNSLRAEDTAVYYCAKDSQLRSLLYFEWLSQGYFDYWGQGTLVTVSS
VL: not shown
notes: also called VR-analogous mouse IgG1 (FI6); source: HEK-293, transfected (pTT5), purified from cell culture supernatant (Protein G); copies: 2 + 2
binds: [1] | [2] | [3] | [4]

B7: FI6 mouse IgG2a (antibody, V domains shown)
VH: QVQLVESGGGVVQPGRSLRLSCAASGFTFSTYAMHWVRQAPGKGLEWVAVISYDANYKYYADSVKGRFTISRDNSKNTLYLQMNSLRAEDTAVYYCAKDSQLRSLLYFEWLSQGYFDYWGQGTLVTVSS
VL: not shown
notes: also called VR-analogous mouse IgG2a (FI6); source: HEK-293, transfected (pTT5), purified from cell culture supernatant (Protein G); copies: 2 + 2
binds: [1] | [2] | [3] | [4]

B8: F045-092 human IgG1 with a mouse IgG1 hinge (antibody, V domains shown)
VH: EVQLVESGAEVKKPGSSVKVSCRASGTFYKYAINWVRQAPGQGLEWMGGIIPFFGTTNYAQKFQGRLTITADGSTNTAYMQLDSLRSEDTAVYYCAGPSITESHYCLDCAAKDYYYGLDVWGQGTTVTVSS
VL: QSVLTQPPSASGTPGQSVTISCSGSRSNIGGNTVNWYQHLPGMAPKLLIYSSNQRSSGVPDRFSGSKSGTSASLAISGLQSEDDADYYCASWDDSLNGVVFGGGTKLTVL
notes: also called human IgG1 with a mouse hinge; copies: 2 + 2
binds: [3] | [4]
